Data reported in article doi:10.1101/2022.02.25.482063.

Target: motavizumab
Assay: SPR

“RSV F glycoprotein S275H, on virions of recombinant RSV-A2 mKate2 (natural protein)” gave a fold reduction of the on-rate (ka) against WT of over 6 fold.
